Laboratory results reported in patent publication US20030200558A1 (MONSANTO, published 2003).

B1: β-conglycinin β subunit mutant 39335-31 (other)
chain: MDYKDDDDKLKVREDENNPFYLRSSNSFQTLFENQNGRIRLIQRFNKRSPQLENLRDYRIVQFQSKPNTIILPHHADADFIIIILSGRAIITIVNNDDRDSYNIHPGDAIRIPAGTTYYIINPHDHQNLKIIKIAIPVNKPGRYDDFFLSSTQAQQSYLQGFSHNILETSFHSEFEEINRVLLGEEEEQRQQEGVIVELSKEQIRQLSRRAKSSSRKTISSEDEPFNLRSRNPIYSNNFGKIFEITPEKTPQLRDLDIFISSVDINEGALILPHFNSKAIVILVINEGDANIEIVGIKEQQQKQKQEEEPLEVQRYRAELSEDDIIVIPAAYPFVINATSNLNFLAFGINAENNQRNFLAGEKDNVVRQIERQVQELAFPGSAQDVERLLKKQRESYFVDAQPQQKEEGSKGRKGPFPSILGALY
B2: β-conglycinin β subunit mutant 39335-46 (other)
chain: MDYKDDDDKLKVREDENNPFYLRSSNSFQTLFENQNGRIRLIQRFNKRSPQLENLRDYRIVQIQSKPNTIILPHHADADFIIIILSGRAIITIVNNDDRDSYNIHPGDAQRIPAGTTYYIINPHDHQNLKIIKIAIPVNKPGRYDDFFLSSTQAQQSYLQGFSHNILETSFHSEFEEINRVLLGEEEEQRQQEGVIVELSKEQIRQLSRRAKSSSRKTISSEDEPFNLRSRNPIYSNNFGKFFEITPEKTPQLRDLDIFISSVDINEGALLLPHFNSKAIVILVINEGDANIELVGIKEQQQKQKQEEEPLEVQRYRAELSEDDIIVIPAAYPFVVNATSNLNIIAIGINAENNQRNFLAGEKDNVVRQIERQVQELAFPGSAQDVERLLKKQRESYFVDAQPQQKEEGSKGRKGPFPSILGALY
B3: β-conglycinin β subunit mutant 39335-38 (other)
chain: MDYKDDDDKLKVREDENNPFYLRSSNSFQTLFENQNGRIRLIQRFNKRSPQLENLRDYRIVQFQSKPNTIILPHHADADFIIIILSGRAILTLVNNDDRDSYNIHPGDAQRIPAGTTYYIINPHDHQNLKIIKIAIPVNKPGRYDDFFLSSTQAQQSYLQGFSHNILETSFHSEFEEINRVLLGEEEEQRQQEGVIVELSKEQIRQLSRRAKSSSRKTISSEDEPFNLRSRNPIYSNNFGKFFEITPEKTPQLRDLDIFLSSVDINEGALILPHFNSKAIVILVINEGDANIELVGIKEQQQKQKQEEEPLEVQRYRAELSEDDVFVIPAAYPFVVNATSNLNFLAFGINAENNQRNFLAGEKDNVVRQIERQVQELAFPGSAQDVERLLKKQRESYFVDAQPQQKEEGSKGRKGPFPSILGALY
B4: β-conglycinin β subunit mutant 39335-42 (other)
chain: MDYKDDDDKLKVREDENNPFYLRSSNSFQTLFENQNGRIRLIQRFNKRSPQLENLRDYRIVQIQSKPNTIILPHHADADFIIIILSGRAILTLVNNDDRDSYNIHPGDAIRIPAGTTYYIINPHDHQNLKIIKIAIPVNKPGRYDDFFLSSTQAQQSYLQGFSHNILETSFHSEFEEINRVLLGEEEEQRQQEGVIVELSKEQIRQLSRRAKSSSRKTISSEDEPFNLRSRNPIYSNNFGKIFEITPEKTPQLRDLDIFLSSVDINEGALLLPHFNSKAIVILVINEGDANIELVGIKEQQQKQKQEEEPLEVQRYRAELSEDDIIVIPAAYPFVVNATSNLNFLAFGINAENNQRNFLAGEKDNVVRQIERQVQELAFPGSAQDVERLLKKQRESYFVDAQPQQKEEGSKGRKGPFPSILGALY
B5: β-conglycinin β subunit mutant 39335-36 (other)
chain: MDYKDDDDKLKVREDENNPFYLRSSNSFQTLFENQNGRIRLIQRFNKRSPQLENLRDYRIVQFQSKPNTIILPHHADADFIIIILSGRAILTLVNNDDRDSYNIHPGDAIRIPAGTTYYIINPHDHQNLKIIKIAIPVNKPGRYDDFFLSSTQAQQSYLQGFSHNILETSFHSEFEEINRVLLGEEEEQRQQEGVIVELSKEQIRQLSRRAKSSSRKTISSEDEPFNLRSRNPIYSNNFGKFFEITPEKTPQLRDLDIFISSVDINEGALILPHFNSKAIVILVINEGDANIEIVGIKEQQQKQKQEEEPLEVQRYRAELSEDDVFVIPAAYPFVINATSNLNFLAFGINAENNQRNFLAGEKDNVVRQIERQVQELAFPGSAQDVERLLKKQRESYFVDAQPQQKEEGSKGRKGPFPSILGALY
B6: β-conglycinin β subunit mutant 39335-49 (other)
chain: MDYKDDDDKLKVREDENNPFYLRSSNSFQTLFENQNGRIRLIQRFNKRSPQLENLRDYRIVQFQSKPNTIILPHHADADFIIIILSGRAILTLVNNDDRDSYNIHPGDAQRIPAGTTYYIINPHDHQNLKIIKIAIPVNKPGRYDDFFLSSTQAQQSYLQGFSHNILETSFHSEFEEINRVLLGEEEEQRQQEGVIVELSKEQIRQLSRRAKSSSRKTISSEDEPFNLRSRNPIYSNNFGKFFEITPEKTPQLRDLDIFISSVDINEGALLLPHFNSKAIVILVINEGDANIELVGIKEQQQKQKQEEEPLEVQRYRAELSEDDIIVIPAAYPFVVNATSNLNIIAIGINAENNQRNFLAGEKDNVVRQIERQVQELAFPGSAQDVERLLKKQRESYFVDAQPQQKEEGSKGRKGPFPSILGALY
B7: β-conglycinin β subunit mutant 39335-43 (other)
chain: MDYKDDDDKLKVREDENNPFYLRSSNSFQTLFENQNGRIRLIQRFNKRSPQLENLRDYRIVQFQSKPNTIILPHHADADFIIIILSGRAILTLVNNDDRDSYNIHPGDAIRIPAGTTYYIINPHDHQNLKIIKIAIPVNKPGRYDDFFLSSTQAQQSYLQGFSHNILETSFHSEFEEINRVLLGEEEEQRQQEGVIVELSKEQIRQLSRRAKSSSRKTISSEDEPFNLRSRNPIYSNNFGKIFEITPEKTPQLRDLDIFLSSVDINEGALLLPHFNSKAIVILVINEGDANIELVGIKEQQQKQKQEEEPLEVQRYRAELSEDDIIVIPAAYPFVVNATSNLNIIAIGINAENNQRNFLAGEKDNVVRQIERQVQELAFPGSAQDVERLLKKQRESYFVDAQPQQKEEGSKGRKGPFPSILGALY
B8: β-conglycinin β subunit mutant 39335-51 (other)
chain: MDYKDDDDKLKVREDENNPFYLRSSNSFQTLFENQNGRIRLIQRFNKRSPQLENLRDYRIVQIQSKPNTIILPHHADADFIIIILSGRAIITIVNNDDRDSYNIHPGDAIRIPAGTTYYIINPHDHQNLKIIKIAIPVNKPGRYDDFFLSSTQAQQSYLQGFSHNILETSFHSEFEEINRVLLGEEEEQRQQEGVIVELSKEQIRQLSRRAKSSSRKTISSEDEPFNLRSRNPIYSNNFGKFFEITPEKTPQLRDLDIFISSVDINEGALLLPHFNSKAIVILVINEGDANIEIVGIKEQQQKQKQEEEPLEVQRYRAELSEDDIIVIPAAYPFVVNATSNLNIIAIGINAENNQRNFLAGEKDNVVRQIERQVQELAFPGSAQDVERLLKKQRESYFVDAQPQQKEEGSKGRKGPFPSILGALY
B9: β-conglycinin β subunit mutant 39335-56 (other)
chain: MDYKDDDDKLKVREDENNPFYLRSSNSFQTLFENQNGRIRLIQRFNKRSPQLENLRDYRIVQIQSKPNTIILPHHADADFIIIILSGRAIITIVNNDDRDSYNIHPGDAIRIPAGTTYYIINPHDHQNLKIIKIAIPVNKPGRYDDFFLSSTQAQQSYLQGFSHNILETSFHSEFEEINRVLLGEEEEQRQQEGVIVELSKEQIRQLSRRAKSSSRKTISSEDEPFNLRSRNPIYSNNFGKIFEITPEKTPQLRDLDIFISSVDINEGALLLPHFNSKAIVILVINEGDANIEIVGIKEQQQKQKQEEEPLEVQRYRAELSEDDIIVIPAAYPFVINATSNLNFIAFGINAENNQRNFLAGEKDNVVRQIERQVQELAFPGSAQDVERLLKKQRESYIVDAQPQQKEEGSKGRKGPFPSILGALY

Molecular target: the molecule itself
Experiment: sucrose gradient sedimentation, anti-FLAG western (self-assembly)

Binding result, no binding:
B1
B2
B3
B4
B5
B6
B7
B8
B9
